Consider 70 sequences from the domain aggregation screens of Martell et al. (2025).
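Further: 20 min heating vs room temperature control held 20 min.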

This series can be described thus: soluble fraction after stress (log2 fold change); higher = more stays soluble; pooled small domains, quantitative proteomics. As to conditions: stress: 75 degC.
Turning to “HMREKLKEYVHLLFAGTVGKEDMEQEILQNTLDRFDDWVARGFSEEDAYRKAVSGIGDIDALLG”, the “soluble fraction (log2)” value was -0.0221.
With “HMREPDPELTASIKSMAESNDQSERLVALAQLSEQRAVDPEVADQILLIALLDEDPIIRGQAVYA” the figure was 0.274.
“HMRERLPFGFAQSKKVVLLSTESDTPKVLSVNWPSLDLYAELKRVIGRAFLLEIVSEEEFQAQVSDAYQRD”: the “soluble fraction (log2)” value was -2.47.
Consider “HMREVGVPNLRGLTAEEAQIVLSNAGLNLRTEPIRRVHETITVGRIAEQDPMPDLTIRSQRSVTTWLSSGP”, for which the “soluble fraction (log2)” value turned out to be 0.328.
With “HMREVTVGSAVRLKKGAKTYSGGSLASFVYERNHQVTQLSGDRAVISFKGTVVAAVHKDDLIL” the figure was -1.06; with “HMREVVLNRIGSVAVQRATTRTWEEWVVTLDAEGMRGKEHRDVVGHLLRAHELTSWWAQMVSVGYEQSRGQ”, -0.18; with “HMREYRITAEEGHPRIDVFLAGRPEIGLSRSRIQALIDEGQVTLNGAMPKARQAVNPGDVIVVRVPDPE”, 0.0963.
With “HMRFEWFDTLTDREKEIFGLIATGFDNQQIADRLQLAEQTVRNNISTIYSKLEVKDRFEIIRLANTI” the figure was -1.35; with “HMRFKPLAEILAAVQTRYAGRVLDVELDRDQAGRNVYEVKLLAADGSRREIHIDAVTGKEVSL”, -0.56; with “HMRGAIKMAEEQMAGHKKIGSISGTAPTQGELEKKFAMAAAQMGARYYVITGLSNNNYAFGNADIY”, -0.669.
With “HMRGDEDTGVWPTPMKRAYIDSLLKGYPTGVTMIVKPPGASHTTKWMILDGANRARALRDFMNDEFMI” the figure was -0.0871; with “HMRGFTDFEHIEKEYLATIEKLNWPDGVTLPDKLEGEDTGTSFQVGYGDTRASNLWEYSWMK”, -0.163.
In the case of “HMRGIPEEVADVAIQWVARLDSNEISDADRAAFFAWLDASPINRWAYNDISESWAKLSILNEMGH”, the “soluble fraction (log2)” value was -1.87.
With “HMRGLFTVYMVGEKASRVGELDEEMVYESRIGDVFALGATSWRIEEITHDRVLVSPAYGQPGRLPFWH” the figure was -2.13; with “HMRGLGDLEPVDSLGKIRIDDGHMVLAFGRHKGRHLSEVQAEDPRYIHWLLSPKGIEDVEAREKVKVYLEG”, 0.0762; with “HMRGLLSQREHDVLDLVARGFSYGEIARLRSISVSTVQTHIKNLYRKLAVSSRTEAVYEAKQMGI”, -1.63.
On to “HMRGLVPEIVGTLEGEIRAGTLAVGQKLPTEAEIMARFDVSRTVVREALSRLQASDLVETRHGIGTFVSAR”, for which the “soluble fraction (log2)” value was -0.647.
In the case of “HMRGPDLSKDFHEYISSQWMFFGRNAYQIAEQINKDTQLMSKYGKTTPSGVHYHIKQIQQEMEN”, the “soluble fraction (log2)” value was -0.785.
With “HMRGPPQVLVDVELEDGRVGQIGVRNGDDATELAETFVRAFRLEQSFVGRLANVIQGKIRELLHSQ” the figure was -1.74; with “HMRGSRIFSGDVSPLTLPANSPFFSGYTEFKPGDVYVERSATNIAMWEWKSQPGGYTWVKTADIA”, -1.27.
With “HMRGYGDRIRILRERAGITIEQLAERLGVAPYFIRRTELSEVYPTKPYIEALADVLNIDASYLARHI” the figure was -2.46; with “HMRHYVLKENNGVIAIYKVNQENEAVFKENTQIQVQYLPEVDLINLKKGIYAIGEEKLNSILEDF”, -0.667; with “HMRIDSFEDARRRFEYDYLTRLLKLTQGSVTQAAKLAKRNRTEFYKLLQRHGIEAAHFKPTS”, -1.53.
With “HMRIDVWLAENGFAPSRQKAQDLIAAGRVFQTDPSGRRQKVSKASAAVDPALSPKIEVIPDPE” the figure was -0.0608.
On to “HMRILGIDPGYAITGYSIIDYVGNKFKLIDSGAVLTKAGVSFPLRLTKIYDDLSMIIDEYKPDA”, for which the “soluble fraction (log2)” value stood at 0.0296.
With “HMRIPANIAEDIKKLQKKEHHLHHHLGRDPFDDELAKELEWDTEQVSEIRQMIKNPELLEELLEAEREEE” the figure was 0.0316; with “HMRITEQRRTLAKLFADTPGYLSPKDVYDYMGRFYPGLSFDTVYRNLRLLDELGVLEQVVFEDGVKFK”, -0.847; with “HMRIWTISDLYKNVEDKKVSLAVFSEDNDSNKVNVLDINGEEHSVNLLKADLPTLVDLFRKNDVRFAVRSN”, -0.116.
With “HMRIWTPEMIKEYIISSNGKEPLNSHYYSTNHPSIYAAAERIFGSWGNAINAAGLDYNAIRKYK” the figure was -0.488.
With “HMRIYFSPSEIGFYHESDKQAYLLAGTWPNDLLEISEKWFLYLLEGQQKGKVITVNDYDQPVLVD” the figure was -2.9.
As to “HMRIYTKDEYLAELSRYLHKLPQDDYESAMAYFREYFEEAGPENEAQAMRDLGTPKEAASEILQNLLH”, the “soluble fraction (log2)” value was -0.401.
Take “HMRKDYTVLYSAVNAEEATEIVSKLQESGVAYQYKDNGDVLVDKKQVDKVRAQLAQEGYPKS”: the “soluble fraction (log2)” value came out at 0.0467.
With “HMRKIEDVLRLHAQGMSTRRIALATGVGKTTVIEYLRRAAVAGLSWPLPEGLDEEALERRVFPPPP” the figure was -2.59; with “HMRKIFPFNPNFITDQRGYFLGMSTSEIDRLHHFRAANKWIQSAQEFQVVTKVSNAWLSEFSPYFNFP”, -3.87; with “HMRKKTYEIITDDLRRMIEAGLIRPGEKLGAIDQLAAKYRVGRSTVREALSHLKALGLVESRQGGGTYVTK”, 0.375.
Consider “HMRKNVAGITPNVYGMGLKDAVYLLENAGYRVKVNGRGNVVRQSINSGTRIIKGQLIILDLD”, for which the “soluble fraction (log2)” value is -3.62.
With “HMRKSNADALDGKTGIVKEEIKTGGYGYVGIDGDMWRSISESGEAIPAGTKVVVISHESIILTVKPA” the figure was -2.23; with “HMRKTLASTAYDSIKAGIVSGEINNNLLLSENTLAKILNMSRTPIREAIKRLEAESYLKSVDGVGLIVQE”, -0.43.
With “HMRKTLSQEAYEKIKQNLEDGVYQGYINGRQVARDLDIGFTPVREAFLQLQSEGLIRKEDNVGYFV” the figure was -0.107.
For the sequence “HMRKTYHVDAYQDDKWWVLQVQEMPNAISQVKSLDQADEWIREAINIVSNEPEDSFDVVIIPV”, the “soluble fraction (log2)” value is -0.404.
With “HMRKVTDTHELSSVVKSVIDQWEEKAAEYRAGKSGLLGFFVGEVMKKTGGAADPEAAKSLLQDRLD” the figure was 0.0219.
In the case of “HMRKYEAVPASVVPAQIQEYVAKSNFPNQYIRKIERNKYTWEIELSNGLEIKFDRQFNVIGFD”, the “soluble fraction (log2)” value is -2.59.
With “HMRLGQLQSVEEPKFIEVHSGKQGDIGEQTIVEYEIDAKYATGDATINLKLLFRDGLFEIYNFNFSSEALL” the figure was 0.133.
With “HMRLNIRTKNNYSYYTIIKDYTNLNGKRTTTIFEKLGNQQQVEERFGKVNTIENIKKYIEELNNE” the figure was -1.65; with “HMRLPAISYSFARKHGVVLRLDGDRPVASLREGADPAILIEVKRHLDGAMGVEKVSEAAFDQLLSTTYA”, -1.53; with “HMRLPNGYGSITKLSGKRRKPFMVRITTGYDNEGKQLMSVLGYYATRTEALAVLAEYNKNPYNPI”, -3.36.
On to “HMRLPNHYGSVVKLSGKRRRPFMVRGGVYGYDDRGYPQYVIVGYTETREQGLTMLAEYNRNP”, for which the “soluble fraction (log2)” value was -3.17.
With “HMRLPVELTDREVEVLRLLAQAMSNGEIARELYIGEATVKTHVSNVLQKLGARDRVAAVVWAHRYGL” the figure was -2.08.
With “HMRLSAADLQSYLKGMDYPASRQDLIAHARGHNAPEEAVATLEQFSDRTYRSAADVSVEFGRE” the figure was 0.254.
For the sequence “HMRLSPTMVETLIAMLNRNAYPAYENNSRTFASLEERGLIQPDIEGNWSLTDTGHQTALKLLK”, the “soluble fraction (log2)” value came to 0.463.
With “HMRLSVRQRMSDVLGALKTQAFVEFTQLFRPQEGRMGVTVTFSAILELLREGLIEIVQSEPFAPIHVRAGA” the figure was 0.183; with “HMRMDKHLWLSLLRLINEGSAEELQTKKDELLQSLERLRITRGPVRGDVLRVVRLIDEELVSRLHLDQR”, -2.58; with “HMRMTKPLPFDLAAFRNEFGFTKSIIMQEVGVSRHIYDNVERTNATPPEFYDDFVSFFQRHGQ”, -1.88.
With “HMRMTPRQALDDLIREREETYAAVSRLLGRNTAYIQQYIKRGTPARLDQSDIAQLALHFDVPAKLLGGKE” the figure was -1.16; with “HMRMTTEQLMSFLKQHFPQVADNFTVRISDEGRLSVEMPVNDKHLRPGGTVSGPSMFALADVAFYLAILQ”, -1.56.
With “HMRNERDRQLYAAMEKLKAEYREALYLVYFENMSYRDAAAVMAQTEKQISNLVYRGKQSLKTILEQEGF” the figure was -2.6; with “HMRNGGHTVYRNNGSLFIVVRDGDKLESVASEFRVSPKKLIKYNDLDIHSNVKTGDMIYIRPKA”, -0.423; with “HMRNLYEILGVSKDAPQGEIKSAYRKLAKTYHPDLNPNNEKAAELFKEINQAYEVLSDETKRRHYDQFGEA”, 0.342.
Turning to “HMRNMTDYLTIVRAVYGGLSQRQAATTYHVSRNTVSLLIRHAKNQGWLTVEDLSRADAAAFSPA”, the “soluble fraction (log2)” value was -0.393.
On to “HMRNMVSVLDHIEGIGPKRRQLLYEHYGELEKIKEASVEEMAGLDGMNRPAAEAVYNFFLAQRNL”, for which the “soluble fraction (log2)” value is -0.247.
With “HMRNSSLQTDLELRAYVIDGLNHFWTPEEIAGRWSLAHPDRPVSFATIYRHIKRKLLPGIEPKTHLRRRGK” the figure was -2.54; with “HMRPEARAASLSDEERKIFDYLAANGEKTIDNISVAVKMSAADILKNITLMSAKGLVYMPSAGRYGVKGN”, -0.297; with “HMRPNREKDMADLEKLAPFLLQMLTNYAQMTGDEKPLNAFITRFGYAAQIRDIQDFFMGPWHPA”, no less than 1.04.
With “HMRPQIAIDAIQALSLIMRTENKEDPTYLESRRVVSDAVAKRLSLNPTDLNRAWSRAPRDHQIAVLSALTQ” the figure was -1.34.
With “HMRPRGTRLPTGWTPSSDALDWTKAEKPGLDPLQTLEKFRDYWTAQPGQKGVKTDWDATWRNWVRREIP” the figure was -0.104; with “HMRPSGTAGILRYLSSGAIRGIGATTAQRLVSEFGEKTLDVMENEPERVAMLKGISKSKAEDFSLQLKQS”, -0.0414; with “HMRPTAWEQVSRHIDQHGSIGNTEVRKAMETENVLAASKQIKKWLEQGLLIILNPTAGTRARRYSKPNM”, -1.19.
Consider “HMRPTDVLNYDESMRILNFSNNRVGFKHLMDAKGIEQVIFKNRKIGYRKSEILALKSELEAEQK”, for which the “soluble fraction (log2)” value is -0.958.
With “HMRPYAYGTGRRKSSTARVHLIPNGSGSITINGRTLDEYFGLETLKLIVRQPLAATETAEKFDVEATVV” the figure was -0.638; with “HMRQDEKTLLYWIGAQVKREGKLIKTSTAQYLVEKTGTDMENLEKELEKLFAYTLDEKEITPAAIDEI”, -1.77.
